Source: PMC7863910, “A novel stress-inducible CmtR-ESX3-Zn^2+ regulatory pathway essential for survival of Mycobacterium bovis under oxidative stress” (The Journal of Biological Chemistry, 2020)

Molecular target: T1, Zur (zinc uptake repressor), purified (UniProt P9WN85 1-130)
T1 sequence: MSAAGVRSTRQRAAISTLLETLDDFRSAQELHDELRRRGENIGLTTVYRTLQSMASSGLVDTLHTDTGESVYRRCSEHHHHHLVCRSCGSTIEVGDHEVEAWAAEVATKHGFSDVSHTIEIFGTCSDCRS
Assay: SPR; Biacore 3000; […] (200 nM) […]; running buffer 10 mM HEPES pH 7.4, 150 mM NaCl, 50 mM EDTA, 0.005% surfactant P20
Settings: both partners purified

B1: CmtR, His-tagged, purified (natural protein)
chain: MLTCEMRESALARLGRALADPTRCRILVALLDGVCYPGQLAAHLGLTRSNVSNHLSCLRGCGLVVATYEGRQVRYALADSHLARALGELVQVVLAVDTDQPCVAERAASGEAVEMTGS
notes: also called His-tagged CmtR
binding result: binds
